# The DeepSol protein solubility set
# Assay: soluble on expression in E. coli; label from the status in PepcDB or PDB records
row,Sequence,soluble on expression in E. coli
1,APSYPEYTREEVGRHRSPEERVWVTHGTDVFDVTDFVELHPGGPDKILLAAGGALEPFWALYAVHGEPHVLELLQQYKVGELSPDEAPAAPDAQDPFAGDPPRHPGLRVNSQKPFNAEPPAELLAERFLTPNELFFTRNHLPVPAVEPSSYRLRVDGPGGGTLSLSLAELRSRFPKHEVTATLQCAGNRRSEMSRVRPVKGLPWDIGAISTARWGGARLRDVLLHAGFPEELQGEWHVCFEGLDADPGGAPYGASIPYGRALSPAADVLLAYEMNGTELPRDHGFPVRVVVPGVVGARSVKWLRRVAVSPDESPSHWQQNDFKGFSPCVDWDTVDYRTAPAIQELPVQSAVTQPRPGAAVPPGELTVKGYAWSGGGREVVRVDVSLDGGRTWKVARLMGDKAPPGRAWAWALWELTVPVEAGTELEIVCKAVDSSYNVQPDSVAPIWNLRGVLSTAWHRVRVSVQD,soluble
2,APYRMAYIKKDPVDDARGSTNPFVRIPELSDEDGLIVARGEYVYCLLNLFPYNSGHMMVVPYRQEPNLEDLTAEEISELFAFGQAAIKVVKSVSRPDAINVGFNLGRASGGSVGEHLHMHIVPRWSGDANFMTVIDGTKVLPQLLRKTRSLLAQAWNDMDG,not soluble
3,AQAVKEAASSDKPLIVAVTACTTGIAHIYMAEESLIKTGEKMSVNVRVETNGASGVGTPMTAEEINKAVGVIIAADKAVETACFNGKN,not soluble
4,AQGQTVYFHAWGGSQEINHYLQWANKELQSKYQVTLKHVKVSDISETIPRLIAEKAADKNTNGSVDMVWINGENFKSMKDNQLLFGPFTENLPSWKYVDKMLPIDVDFSEPTDGLEAPWGVGQLVFIHDSENLTNPPHSFAEMLSYAQKKPNSLSYPRPPEFHGTSVLKSMLIELTNNNPALQKPVSESDFNAVTAPLWDYLEKFHKVAWRGGKQFPAGTSETIQLLDDGQLDLAVTFNPNAVYSAQANGNLANTTKAYAMDSGALSNIHFLAIPWNAKASAGAQVAINFLLSPEAQSRKGDLNVWGDPSVLSSKYLTGSAKNTQQFKSVSEPHPSWQAAIEKEWLKRFGS,not soluble
5,ASNFEEFVLVDNGGTGDVKVAPSNFANGVAEWISSNSRSQAYKVTCSVRQSSANNRKYTVKVEVPKVATQVQGGVELPVAAWRSYMNMELTIPVFATNDDCALIVKALQGTFKTGNPIATAIAANSGIY,soluble
6,ASSSYYEQYHSLNEIYSWIEVMTERYPDMVEKIHIGSSYEKYPLYVLKVSKKEQRAKNAMWIDCGIHAREWISPAFCLWFVGSVTYYYGKEKMHTNLLKHMDFYIMPVVNVDGYDYTWKKDRMWRKNRSLHEKNACVGTDLNRNFASKHWCGEGASSSSCSEIYCGTYPESEPEVKAVADFLRRNIKHIKAYISMHSYSQKIVFPYSYSRSRSKDHEELSLVAREAVFAMENIHRNIRYTHGSGSESLYLAPGGSDDWIYDLGIKYSFTFELRDKGKYGFLLPESYIRPTCSEALVAVAKIASHVVKNV,soluble
7,ASTSRLDALPRVTCPNHPDAILVEDYRAGDMICPECGLVVGDRVIDVGSEWRTFSNDK,soluble
8,AVNEENIMIPKGVEVYEITGPYFFGIATKFEETMAQLGDRPNVRIIRMRKVPFIDSTGIHNLTTLCEMSQKEKITVILSGVNEKVYKVLEKSGFYELLGKENICPNFKIALDRAEEV,not soluble
9,AVSKVYARSVYDSRGNPTVEVELTTEKGVFRSIVPSGASTGVHEALEMRDGDKSKWMGKGVLHAVKNVNDVIAPAFVKADIDVKDQKAVDDFLISLDGTANKSKLGANAILGVSLAASRAAAAEKDVPLYKHLADLSKSKTSPYVLPVPFLNVLNGGSHAGGALALQEFMIAPTGAKTFAEALRIGSEVYHNLKSLTKKRYGASAGNVGDEGGVAPNIQTAEEALDLIVDAIKAAGHDGKVKIGLDCASSEFFKDGKYDLDFKNPNSDKSKWLTGPQLADLYHSLMKRYPIVSIEDPFAEDDWEAWSHFFKTAGIQIVADDLTVTNPKRIATAIEKKAADALLLKVNQIGTLSESIKAAQDSFAAGWGVMVSHRSGETEDTFIADLVVGLRTGQIKTGAPARSERLAKLNQLLRIEEELGDNAVFAGENFHHGDKL,soluble
10,AVVETAAMFDGTEGTLGRSMTLEDMELMTWAIFQSGQKIPAKVYSKILAQWDLYSYQMAVFHEAYDILLTPTVADVTPKHGQFALSESLQNQLKQIAYFDWPKQQELIWAMFADSLDWTSFTQRANLTGQPSISLPIYRNADGLSLGVQLTSAKGREDLLLLLAKQMEE,not soluble
11,CGKSEAPPPAQTPEVGIVTLEAQTVTLNTELPGRTNAFRIAEVRPQVNGIILKRLFKEGSDVKAGQQLYQIDPATYEADYQSAQANLASTQEQAQRYKLLVADQAVSKQQYADANAAYLQSKAAVEQARINLRYTKVLSPISGRIGRSAVTEGALVTNGQANAMATVQQLDPIYVDVTQPSTALLRLRRELASGQLERAGDNAAKVSLKLEDGSQYPLEGRLEFSEVSVDEGTGSVTIRAVFPNPNNELLPGMFVHAQLQEGVKQKAILAPQQGVTRDLKGQATALVVNAQNKVELRVIKADRVIGDKWLVTEGLNAGDKIITEGLQFVQPGVEVKTVPAKNVASAQKADAAPAKTDSKG,soluble
12,CIAGHSRGGLIALIAAALKGKWAIAVSAPSDRRKQKEYLSKFPPGTVQYNIYQDLMKMPEYELEYSSLSYADRLKKVLLIHGEDDEMVLKEHSITLCDTIKRMGGDCELHIIPKMKHTPLGQQYQTIWSIIEDWIKRNS,not soluble
13,CTCSPSHPQDAFCNSDIVIRAKVVGKKLVKEGPFGTLVYTIKQMKMYRGFTKMPHVQYIHTEASESLCGLKLEVNKYQYLLTGRVYDGKMYTGLCNFVERWDQLTLSQRKGLNYRYHLGCN,soluble
14,DAAGVSEVEVEATEIENLKAELSEMEDKFLRARAEIANMSNRNKNERELLVRYRSQDLGKKILPSIDNLERAMAIEVSDEQGESLKKGISMVLESITVALKEEG,not soluble
15,DCMFGNGKGYRGKRVTTVTGTPCQDWAAQEPHRHSIFTPETNPRAGLEKNYCRNPDGDVGGPWCYTTNPRKLYDYCDVPQCAAP,soluble
16,DDEFLRGKRVLVVDDNFISRKVATGKLKKMGVSEVEQCDSGKEALRLVTEGLTQREEQGSVDKLPFDYIFMDCQMPEMDGYEATREIRKVEKSYGVRTPIIAVSGHDPGSEEARETIQAGMDAFLDKSLNQLANVIREIESKR,soluble
17,DEEPMHYGNIMYDRRVIRGNTYALQTGPLLGRPDSLELQRQREARKRALARKQAQEQLRPQTPEPVEGRKHVDVQTELYLEEIADRIIEVDMECQTDAFLDRPPTPLFIPAKTGKDVATQILEGELFDFDLEVKPVLEVLVGKTIEQSLLEVMEEEELANLRASQREYEELRNSERAEVQRLEEQERRHREEKERRKKQQWEIMHKHNETSQKIAARAFAQRYLADLLPSVFGSLRDSGYFYDPIERDIEIGFLPWLMNEVEKTMEYSMVGRTVLDMLIREVVEKRLCMYE,not soluble
18,DFEIMAPVGSRESLAAAIQAGADSIYFGIESLNMRARSASTFTVNDLREIAQICDKHGIKSYLTINTIIYDEDIALMRTIVDAAKEAGISAVIAADVAVMAYCCEVGQEVHLSTQLNISNAGALKFYARFADVVVLARELNLKQVRVIYDTIQKEQIKGPNGELVRIEMFCHGALCMAVSGKCYLSLHEMNASANRGACMQICRRAYDVKDKESDIELEVDNKYIMSPKDLKTIHFMDEMIEAGVRVFKIEGRARGPEYVRTVVECYKEAICSYLEGTFTEEKKQAWDERLKTVFNRGFWNGYYLGQRLGEWSKNYGSEATERKVYVGKGIKYFSNIGVAEFLVEAAEMKVGDKLLITGPTTGAVFLTLDEARVDLKPVDVVRKGQHVSFKVPDKVRPSDKLYKLVSPEDLK,not soluble
19,DIELTQSPPSLPVSLGDQVSISCRSSQSLVSNNRRNYLHWYLQKPGQSPKLVIYKVSNRFSGVPDRFSGSGSGTDFTLKISRVAAEDLGLYFCSQSSHVPLTFGSGTKLEIKR,soluble
20,DIGCYTLGALPPYEAINSCVDMGASITMAKGAADAGLFPAVSVIGDSTFTHSGITGLLDAINENSNITVIISDNESISMTGGQHSSAYGKVEAICRGIGVDPDHIRELLPVPKNHDELCSIIREEINYEGVSVIIPRRVCIQKHARDAKAAKRAKA,not soluble
21,DIINFFKQITDHEPYDYQIRAWEKINKIMELGGRVVIEIPTAGGKTEAAIIPYLYQFISNDWKVPRLIYVLPTRSLVEKQVERIRNYIKKILEIKGYSKDKVEELAKKIVQVEYGLEETHAFLGFVVLTTWDTFLYGLAAHRTVGDRFTFPCGAIAQSLVVFDEIQMYQDESLYMPRLIGLVVKRLVEANVPLVFMTATLPTELKKILGIHDEEPITVNPEDT,not soluble
22,DIPFYEQVKASAGHGFLCECKNVTYISLPKALFKYFNVKDLLAITAHGDSMEPVLNDDALLVIDSSKKQIRDGSMYVIRQGDLIRVKLISLDNNGLKLKSYNQSYHDEIYEDYQDVEILGKVIWYSSLCL,not soluble
23,DLAKEGKLHSIVDSLFYSRLYKKEKRVYGDTDYDRFDFFTNRFLQSFNKAAFDDFFSSRVEYPNQIKILFQMFFTKMEKLKTD,not soluble
24,DLFFGWGRKKSGLKAMNLAKKYKAKFILLEDGFIRSLNLGVENSPSFSMVKDDIGIYYDATMPSKLENLLNTCEFKDEEIKQAKKAIELIKKYKISKYNNNLDIPDNYFQKDEKRVLIITQTANDASLEFGLAKDFKTLDMIKDAIKENPKSTIYIKIHPDVLSGKKQSDLDLNSLPKECILITENFNPIALLEFFDKVYTKTSGMGFEALMQECECICYGMPFYAGWGLTKDKLECKRRMQKRSLEEVFYAAYILYAEY,not soluble
25,DLIVTAGGKNVSPGPMEDIIRAHPLVSQAMVVGDGKPFVGLLVTLDPDMLKRWKLNHNIAESRTVSEIATDPALRAEIQDAVNNANATVSHSEAIKRFYILDRDLTEEADELTPTLKVKRNVVVRRYADAIDHIYNR,not soluble
26,DPAGLLDLRQGMFAQLVAQNVLLIDGPLSWYSDPGLAGVSLTGGLSYKEDTKELVVAKAGVYYVFFQMELRRVVAGEGSGSVSLALHLMPLRSAAGAAALALTVDLPPASSEARNSAFGFQGRLLHLSAGQRLGVHLHTEARARHAWQLTQGATVLGLFRVTPEIPA,soluble
27,DPGERLYDLNMPAYVKFNYMAEREDELSLIKGTKVIVMEKCSDGWWRGSYNGQVGWFPSNYVTEEGDSPLGDHVG,soluble
28,DPSVTHVLHQLCDILANNYAFSERIPTLLQHLPNLDYSTVISEEDIAAKLNYELQSLTEDPRLVLKSKTDTLVMPGDSIQAENIPEDEAMLQALVNTVFKVSILPGNIGYLRFDQFADVSVIAKLAPFIVNTVWEPITITENLIIDLRYNVGGSSTAVPLLLSYFLDPETKIHLFTLHNRQQNSTDEVYSHPKVLGKPYGSKKGVYVLTSHQTATAAEEFAYLMQSLSRATIIGEITSGNLMHSKVFPFGDTQLSVTVPIINFIDSNGDYWLGGGVVPDAIVLADEALDKAKEIIAFHPPLA,soluble
29,DQESCKGRCTEGFNVDKKCQCDELCSYYQSCCTDYTAECKPQVTRGDVFTM,soluble
